Key:
[1] = biological target: denatured SHaPrP 27-30 (Syrian hamster) (UniProt P04273); experiment: ELISA on denatured PrP 27-30 (FIG. 10)
[2] = biological target: non-denatured SHaPrP 27-30 (Syrian hamster) (UniProt P04273); experiment: ELISA on non-denatured PrP 27-30 (FIG. 9)
[3] = biological target: non-denatured SHaPrP 27-30 (Syrian hamster) (UniProt P04273); experiment: estimated from immunoprecipitation (FIG. 12)

3F4 Fab
Ka [1]: 1e+08 M⁻¹
EC50 [2]: 2 µg/mL
Ka [3]: < 1e+07 M⁻¹

Reference: patent US20030228303A1
